Substrate in this data set: I
Nature of the data set: cells, lysate or membranes. As to conditions: other: initial velocity rates at 2 min, iodide 1.25 to 250 μM, oocytes 60 h after injection; 37.0 °C.

B1: rat sodium/iodide symporter (Rattus norvegicus) (protein)
chain: MEGAEAGARATFGAWDYGVFATMLLVSTGIGLWVGLARGGQRSADDFFTGGRQLAAVPVGLSLAASFMSAVQVLGVPAEAARYGLKFLWMCAGQLLNSLLTAFLFLPIFYRLGLTSTYQYLELRFSRAVRLCGTLQYLVATMLYTGIVIYAPALILNQVTGLDIWASLLSTGIICTLYTTVGGMKAVVWTDVFQVVVMLVGFWVILARGVILLGGPRNVLSLAQNHSRINLMDFDPDPRSRYTFWTFIVGGTLVWLSMYGVNQAQVQRYVACHTEGKAKLALLVNQLGLFLIVASAACCGIVMFVYYKDCDPLLTGRISAPDQYMPLLVLDIFEDLPGVPGLFLACAYSGTLSTASTSINAMAAVTVEDLIKPRMPGLAPRKLVFISKGLSFIYGSACLTVAALSSLLGGGVLQGSFTVMGVISGPLLGAFTLGMLLPACNTPGVLSGLAAGLAVSLWVAVGATLYPPGEQTMGVLPTSAAGCTNDSVLLGPPGATNASNGIPSSGMDTGRPALADTFYAISYLYYGALGTLTTMLCGALISYLTGPTKRSSLGPGLLWWDLARQTASVAPKEDTATLEESLVKGPEDIPAVTKKPPGLKPGAETHPLYLGHDVETNL
As for B1, the Km stood at 36 µM.

(Values after patent US7320863B2, “Thyroid sodium/iodide symporter and nucleic acid encoding same” (Albert Einstein College of Medicine of Yeshiva University, priority 1996, dated 2008).)
